Starred links: 1 amine or outer side, 2 acyl side, 3 side chain; linkers in the order of their positions; H or OH if unused. Non-standard residues stand in square brackets, D forms with d. No end group written: not given here. *: point of attachment. Phe(4-CH2SO3H) = N[C@@H](Cc1ccc(CS(=O)(=O)O)cc1)C(=O)O; sY = N[C@@H](Cc1ccc(OS(=O)(=O)O)cc1)C(=O)O; C18 diacid = O=C(O)CCCCCCCCCCCCCCCCC(=O)*; C16 diacid = O=C(O)CCCCCCCCCCCCCCC(=O)*; γGlu = O=C(O)[C@H](CCC(=O)[*:2])N[*:1]; NMeF = CN[C@@H](Cc1ccccc1)C(=O)O; dNMeD = CN[C@H](CC(=O)O)C(=O)O; Nle = CCCC[C@H](N)C(=O)O; AEEA = NCCOCCOCC(=O)O
T1: human cholecystokinin-2 receptor (human, UniProt P32239 1-447)
T1 construct: whole, on cells; also called CCK-2R; CCK-2 receptor
T1 sequence (looked up): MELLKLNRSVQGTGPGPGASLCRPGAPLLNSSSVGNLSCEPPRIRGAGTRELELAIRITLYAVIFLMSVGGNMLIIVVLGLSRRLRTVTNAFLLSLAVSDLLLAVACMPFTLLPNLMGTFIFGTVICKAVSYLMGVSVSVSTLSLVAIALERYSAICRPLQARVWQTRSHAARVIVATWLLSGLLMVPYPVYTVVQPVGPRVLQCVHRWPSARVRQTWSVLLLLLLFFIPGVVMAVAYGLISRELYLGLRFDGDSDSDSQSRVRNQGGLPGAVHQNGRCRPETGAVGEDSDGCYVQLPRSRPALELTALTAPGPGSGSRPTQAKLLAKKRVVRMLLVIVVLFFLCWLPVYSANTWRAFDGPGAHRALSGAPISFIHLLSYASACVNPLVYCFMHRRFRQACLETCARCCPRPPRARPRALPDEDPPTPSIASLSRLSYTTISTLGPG

T2: human cholecystokinin-1 receptor (human, UniProt P32238 1-428)
T2 sequence (looked up): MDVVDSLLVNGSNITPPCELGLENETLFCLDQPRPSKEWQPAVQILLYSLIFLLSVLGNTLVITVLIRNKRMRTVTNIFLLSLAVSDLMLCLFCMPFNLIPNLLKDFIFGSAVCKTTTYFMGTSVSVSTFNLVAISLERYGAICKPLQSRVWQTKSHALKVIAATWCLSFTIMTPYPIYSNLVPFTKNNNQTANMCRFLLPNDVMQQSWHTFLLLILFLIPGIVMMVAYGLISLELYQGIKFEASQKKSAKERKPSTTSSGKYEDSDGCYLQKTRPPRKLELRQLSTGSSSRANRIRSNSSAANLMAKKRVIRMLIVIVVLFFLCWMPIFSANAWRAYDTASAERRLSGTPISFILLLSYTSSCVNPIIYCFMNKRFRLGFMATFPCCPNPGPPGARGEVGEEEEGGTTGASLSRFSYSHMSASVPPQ

B1: Asp-sTyr-Phe-Gly-Trp-Nle-DMeAsp-MePhe-amide (peptide)
peptide: D[sY]FGW[Nle][dNMeD][NMeF]-NH2
modifications: N-terminus assumed
SMILES: CCCC[C@H](NC(=O)[C@H](Cc1c[nH]c2ccccc12)NC(=O)CNC(=O)[C@H](Cc1ccccc1)NC(=O)[C@H](Cc1ccc(OS(=O)(=O)O)cc1)NC(=O)[C@@H](N)CC(=O)O)C(=O)N(C)[C@H](CC(=O)O)C(=O)N(C)[C@@H](Cc1ccccc1)C(N)=O
notes: X = Nle or Nal

Legend:
[1] = molecular target: T1, human cholecystokinin-2 receptor; experiment: SPA competition vs [125I]-CCK-8s, membranes
Protocol: CCK receptor binding assays were performed in 96-well Optiplates (Cat #6005290, PerkinElmer, Waltham, Mass., USA) in a total volume of 200 μl per well.
The plates were sealed and incubated in the dark at +22° C. for 2 hours on a IKA MTS plate shaker (IKA-Werke D-79219 Staufen) set at 300 rpm and thereafter centrifuged at 1500 rpm for 10 minutes in a Heraeus Multifuge 3s centrifuge. SPA bead light emission was measured in a TopCount NXT (PerkinElmer) for 2 min/well after a delay of 60 min.

[2] = molecular target: T1, human cholecystokinin-2 receptor; experiment: cell-based or functional assay
[3] = molecular target: T2, human cholecystokinin-1 receptor; experiment: cell-based or functional assay

Binder | IC50 [1] | EC50 (CCK-2R) [2] | EC50 (CCK-1R) [3]
{C18 diacid-γGlu-AEEA-AEEA}-D[sY]PGW[Nle][dNMeD][NMeF]-NH2 (X = Nle or Nal) | 5200 nM | 300 nM | –
{C18 diacid-γGlu-AEEA-AEEA}-D[sY]HGW[Nle][dNMeD][NMeF]-NH2 (X = Nle or Nal) | 9000 nM | > 1000 nM | –
B1 | – | > 1000 nM | 0.22 nM
{C18 diacid-γGlu-AEEA-AEEA}-D[sY]IGW[Nle][dNMeD][NMeF]-NH2 (X = Nle or Nal) | 340 nM | 210 nM | –
{C16 diacid-γGlu-AEEA-AEEA}-E[sY]LGW[Nle][dNMeD][NMeF]-NH2 (X = Nle or Nal) | 590 nM | 110 nM | –
{C18 diacid-γGlu-AEEA-AEEA}-D[Phe(4-CH2SO3H)]LGW[Nle][dNMeD][NMeF]-NH2 (X = Nle or Nal) | 380 nM | 81 nM | –
{C18 diacid-γGlu-AEEA-AEEA}-[dE][sY]LGW[Nle][dNMeD][NMeF]-NH2 (X = Nle or Nal) | 700 nM | 46 nM | –
D[sY]RGW[Nle][dNMeD][NMeF]-NH2 (X = Nle or Nal) [Asp-sTyr-Arg-Gly-Trp-Nle-DMeAsp-MePhe-amide] | 1500 nM | 910 nM | –
{C18 diacid-γGlu-AEEA-AEEA}-E[sY]LGW[Nle][dNMeD][NMeF]-NH2 (X = Nle or Nal) | 2400 nM | 62 nM | –
